Measured values: patent US20230203142

Target: human NDPK-A (nucleoside diphosphate kinase A), full-length recombinant
Sequence (chain, as listed by the source): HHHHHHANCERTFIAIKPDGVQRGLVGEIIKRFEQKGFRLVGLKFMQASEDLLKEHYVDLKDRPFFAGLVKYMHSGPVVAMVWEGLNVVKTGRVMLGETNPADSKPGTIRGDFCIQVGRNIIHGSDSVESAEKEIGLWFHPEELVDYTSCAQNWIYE

B1: human ADK (adenosine kinase), recombinant (protein)
chain: AAAEEEPKPKKLKVEAPQALRENILFGMGNPLLDISAVVDKDFLDKYSLKPNDQILAEDKHKELFDELVKKFKVEYHAGGSTQNSIKVAQWMIQQPHKAATFFGCIGIDKFGEILKRKAAEAHVDAHYYEQNEQPTGTCAACITGDNRSLIANLAAANCYKKEKHLDLEKNWMLVEKARVCYIAGFFLTVSPESVLKVAHHASENNRIFTLNLSAPFISQFYKESLMKVMPYVDILFGNETEAATFAREQGFETKDIKEIAKKTQALPKMNSKRQRIVIFTQGRDDTIMATESEVTAFAVLDQDQKEIIDTNGAGDAFVGGFLSQLVSDKPLTECIRAGHYAASIIIRRTGCTFPEKPDFH
- activity of recombinant NDPK to generate ADP (ADP-Glo): addition of recombinant ADK significantly reduced the activity of NDPK to generate ADP
